Assay results: the supplement of paper PMC10065799, “High-throughput profiling of sequence recognition by tyrosine kinases and SH2 domains using bacterial peptide display” (eLife, 2023)
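Further: 11-residue human phosphosite peptides and single-mutation variants displayed on the E. coli surface, counted by deep sequencing, each peptide's frequency after selection divided by its frequency in the unselected input library; frequency after pTyr selection over input frequency; kinase dosed for 20-30% of maximal phosphorylation in three min.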

These sequences were tested on AncSZ (assay: phosphorylation enrichment, bacterial display (enrichment ratio); higher = better substrate or ligand; peptides without Tyr show the background).
Sequence AKRKGYDMRVD [NEB_Y2770] has a phosphorylation enrichment of 0.459.
Work on NDPMEYAKQHG [ASS1_Y163_L160P] yielded a phosphorylation enrichment of 0.769.
Sequence KPGVNYFFRVS has a phosphorylation enrichment of 1.06.
PPLMLYNPTTF [EGFR_Y270_YF] gave a phosphorylation enrichment of 1.34.
Sequence YEEDSYSHIMA [FDPS_Y388] has a phosphorylation enrichment of 1.85.
With QEALEYFMKQV [PIK3CA_Y1038_M1043V] the phosphorylation enrichment was 1.18.
In the case of IRFPPYTDWNQ [ALDH3B2_Y365_H361R_YF], the phosphorylation enrichment is reported as 0.741.
In the case of RQRTAYFSLNT [CDH1_Y68_D72N], the phosphorylation enrichment is reported as 0.794.
SLFNGYVYSGM [NEIL3_Y71_V76M] gave a phosphorylation enrichment of 0.844.
Work on IVFTSYFLTIL [TAS2R16_Y239] yielded a phosphorylation enrichment of 1.45.
In the case of IENKPYGMSDP [RET_Y1062_L1061P], the phosphorylation enrichment is reported as 0.761.
For KLSCSYSHWSA [C4BPA_Y470], the phosphorylation enrichment was 1.13.
Sequence ATATEYHTTSH [SLC4A1_Y46_D45E] has a phosphorylation enrichment of 0.506.
PTKNDYWAMPA [WWOX_Y287_L291P] showed a phosphorylation enrichment of 2.02.
With AQESNYRLLRR [SLC20A2_Y377] the phosphorylation enrichment was 0.738.
Work on RLEPVYFVAPA [LAMC2_Y250_D247E] yielded a phosphorylation enrichment of 2.59.
With RPPFTYATLIH [FOXP3_Y342_R347H] the phosphorylation enrichment was 1.07.
Sequence FNNPAYFVLEG [INPPL1_Y986_YF] has a phosphorylation enrichment of 1.25.
In the case of SVVVPYEPPEL [TP53_Y220_V225L], the phosphorylation enrichment is reported as 0.905.
Work on VTRLWYPVCFG [ITK_Y336_R335W] yielded a phosphorylation enrichment of 1.17.
In the case of LQTYRYHGHSM [PDHA1_Y289], the phosphorylation enrichment is reported as 0.52.
WDLPEYSFKDP [ITGA3_Y237_S235P_YF] showed a phosphorylation enrichment of 2.37.
DLDPNYVLSSR [CKM_Y125] was tested, and the phosphorylation enrichment was 1.17.
In the case of NVADHYRVYKP [ATP6V0D2_Y271_G272R], the phosphorylation enrichment is reported as 0.721.
Work on VKANTYEKYWL [GATM_Y100_P105L] yielded a phosphorylation enrichment of 0.794.
With GSERDYTFDEL [EIF2S2_Y174_E177D_YF] the phosphorylation enrichment was 1.25.
With KNSSIYVVANI [VNN1_Y134_N131S] the phosphorylation enrichment was 1.23.
For HLPAGYIIPLQ [GAA_Y822_R819P], the phosphorylation enrichment was 0.638.
LAETSYVTVLE [MAGEA1_Y276_K278T] showed a phosphorylation enrichment of 1.65.
PDSVDYPKKGY [CTSK_Y121_R122P] gave a phosphorylation enrichment of 0.917.
VEYAKYGSLQG [RET_Y809_R813Q] showed a phosphorylation enrichment of 0.614.
For DDKEYYSVHNK [MET_Y1235_Y1230D], the phosphorylation enrichment was 1.93.
In the case of NAMRRYIEEFQ [MNS1_Y244], the phosphorylation enrichment is reported as 0.734.

These sequences were tested against Jak2 (UniProt O60674) in the same assay as above.
Chain of Jak2 (O60674 whole entry, looked up): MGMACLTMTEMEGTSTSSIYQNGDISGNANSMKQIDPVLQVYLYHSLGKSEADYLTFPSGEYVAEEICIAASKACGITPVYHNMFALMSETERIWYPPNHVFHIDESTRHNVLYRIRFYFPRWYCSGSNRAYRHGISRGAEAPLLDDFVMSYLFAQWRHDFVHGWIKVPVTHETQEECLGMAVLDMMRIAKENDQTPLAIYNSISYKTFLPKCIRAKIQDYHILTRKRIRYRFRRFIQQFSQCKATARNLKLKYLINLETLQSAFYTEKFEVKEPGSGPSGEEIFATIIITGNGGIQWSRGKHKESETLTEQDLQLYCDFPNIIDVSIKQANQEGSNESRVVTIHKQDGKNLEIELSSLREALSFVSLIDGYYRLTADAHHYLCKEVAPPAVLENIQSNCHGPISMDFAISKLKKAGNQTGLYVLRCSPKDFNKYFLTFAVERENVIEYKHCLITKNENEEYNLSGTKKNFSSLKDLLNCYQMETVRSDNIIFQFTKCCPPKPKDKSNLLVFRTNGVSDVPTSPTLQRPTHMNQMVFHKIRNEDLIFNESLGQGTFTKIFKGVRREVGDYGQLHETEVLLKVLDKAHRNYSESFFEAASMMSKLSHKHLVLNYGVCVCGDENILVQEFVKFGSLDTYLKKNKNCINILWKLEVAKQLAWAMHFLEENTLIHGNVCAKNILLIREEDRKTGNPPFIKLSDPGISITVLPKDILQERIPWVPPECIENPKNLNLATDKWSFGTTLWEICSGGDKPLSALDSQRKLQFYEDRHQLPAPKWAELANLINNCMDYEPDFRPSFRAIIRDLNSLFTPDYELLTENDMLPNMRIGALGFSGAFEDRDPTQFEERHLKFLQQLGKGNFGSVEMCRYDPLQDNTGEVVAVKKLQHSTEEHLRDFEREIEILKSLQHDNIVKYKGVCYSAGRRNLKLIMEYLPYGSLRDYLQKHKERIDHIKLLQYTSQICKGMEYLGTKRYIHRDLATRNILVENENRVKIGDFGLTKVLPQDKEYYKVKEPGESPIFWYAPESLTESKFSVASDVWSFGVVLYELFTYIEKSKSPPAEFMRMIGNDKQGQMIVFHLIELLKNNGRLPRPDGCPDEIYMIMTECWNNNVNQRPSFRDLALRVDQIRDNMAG
In the case of AKRKGYDMRVD [NEB_Y2770], the phosphorylation enrichment is reported as 0.431.
For NDPMEYAKQHG [ASS1_Y163_L160P], the phosphorylation enrichment was 0.86.
Work on KPGVNYFFRVS yielded a phosphorylation enrichment of 0.986.
PPLMLYNPTTF [EGFR_Y270_YF] was tested, and the phosphorylation enrichment was 1.03.
YEEDSYSHIMA [FDPS_Y388] showed a phosphorylation enrichment of 1.06.
In the case of QEALEYFMKQV [PIK3CA_Y1038_M1043V], the phosphorylation enrichment is reported as 0.849.
IRFPPYTDWNQ [ALDH3B2_Y365_H361R_YF] gave a phosphorylation enrichment of 0.555.
RQRTAYFSLNT [CDH1_Y68_D72N] gave a phosphorylation enrichment of 1.34.
SLFNGYVYSGM [NEIL3_Y71_V76M] was tested, and the phosphorylation enrichment was 1.15.
Sequence IVFTSYFLTIL [TAS2R16_Y239] has a phosphorylation enrichment of 1.76.
Work on IENKPYGMSDP [RET_Y1062_L1061P] yielded a phosphorylation enrichment of 0.869.
Work on KLSCSYSHWSA [C4BPA_Y470] yielded a phosphorylation enrichment of 0.894.
For ATATEYHTTSH [SLC4A1_Y46_D45E], the phosphorylation enrichment was 0.99.
In the case of PTKNDYWAMPA [WWOX_Y287_L291P], the phosphorylation enrichment is reported as 2.69.
AQESNYRLLRR [SLC20A2_Y377] was tested, and the phosphorylation enrichment was 0.593.
For RLEPVYFVAPA [LAMC2_Y250_D247E], the phosphorylation enrichment was 1.7.
With RPPFTYATLIH [FOXP3_Y342_R347H] the phosphorylation enrichment was 0.933.
FNNPAYFVLEG [INPPL1_Y986_YF] showed a phosphorylation enrichment of 4.57.
SVVVPYEPPEL [TP53_Y220_V225L] gave a phosphorylation enrichment of 0.811.
VTRLWYPVCFG [ITK_Y336_R335W] showed a phosphorylation enrichment of 1.02.
With LQTYRYHGHSM [PDHA1_Y289] the phosphorylation enrichment was 0.569.
WDLPEYSFKDP [ITGA3_Y237_S235P_YF] showed a phosphorylation enrichment of 1.18.
DLDPNYVLSSR [CKM_Y125] gave a phosphorylation enrichment of 0.759.
NVADHYRVYKP [ATP6V0D2_Y271_G272R] showed a phosphorylation enrichment of 0.561.
Work on VKANTYEKYWL [GATM_Y100_P105L] yielded a phosphorylation enrichment of 0.733.
GSERDYTFDEL [EIF2S2_Y174_E177D_YF] showed a phosphorylation enrichment of 1.21.
With KNSSIYVVANI [VNN1_Y134_N131S] the phosphorylation enrichment was 1.31.
HLPAGYIIPLQ [GAA_Y822_R819P] showed a phosphorylation enrichment of 0.608.
LAETSYVTVLE [MAGEA1_Y276_K278T] showed a phosphorylation enrichment of 1.02.
PDSVDYPKKGY [CTSK_Y121_R122P] gave a phosphorylation enrichment of 0.707.
Work on VEYAKYGSLQG [RET_Y809_R813Q] yielded a phosphorylation enrichment of 0.58.
Sequence DDKEYYSVHNK [MET_Y1235_Y1230D] has a phosphorylation enrichment of 1.17.
NAMRRYIEEFQ [MNS1_Y244] showed a phosphorylation enrichment of 0.516.
